# Measurements reported in patent US20250360220A1, “REGULATION OF TAU USING PROTEIN-LIKE POLYMERS AND USES THEREOF” (NORTHWESTERN UNIVERSITY, priority 2022, published 2025).
# Tests used:
# [1] = Concentration dependence of polymer activation of Thioflavin T (no Tau); conditions: 1 μM PLP, no Tau (FIG. 25)
# From the text: FIG. 25: Concentration dependence of polymer activation of Thioflavin T. TP4: PLP homopolymer incorporating SEQ ID: 4 as peptide sidechains. TP7: PLP homopolymer incorporating SEQ ID: 2 as peptide sidechains. TP4 and TP7 controls: PLP homopolymer, thioflavin T, no heparin, and PBS. The remainder of controls were at baseline and were removed from this FIG. 25 to improve readability. ThioT control: no Tau, no heparin, thioflavin T and PBS. ThioT heparin control: no Tau, no PLPs, thioflavin T, heparin, and PBS. n=3.
# (§1) Tau Kinetics Thioflavin T Plate Reader Assay Protocol: First, controls and the effects of varying concentrations of K18 Tau were examined (FIG. 24). In FIG. 24, 1X Tau refers to 10 μM K18 Tau final concentration in the well with 100 μl total volume (i.e., 0.5× Tau refers to 5 μM K18 Tau and 2× Tau refers to 20 μM K18 Tau). Before PLPs were added to K18 Tau, the concentration at which the mimetic aggregative polymers would not activate Thioflavin T was evaluated. Based on the results depicted in FIG. 25, a PLP concentration of 1 μM was selected for further experimentations. […] Given the goal to investigate effects of the PLPs, it was determined that too high of a concentration could easily be adjusted, whereas too low of a concentration could result in a false negative with respect to impact.
# [2] = Liquid-liquid phase separation (LLPS) of rhodamine labeled PLPs; format: physicochemical; conditions: HEPES buffer with heparin, room temperature
# Procedure: Solutions were dissolved in HEPES buffer: 10 mM HEPES buffer (pH 7.4) with 0.1 mM EDTA and 2 mM DTT, Media buffer: Dulbecco Modified Eagles Medium (high glucose) with 2 mM L-glutamine with 10% Fetal Bovine Serum, 1% Penicillin/Streptomycin, or water. Different crowding agents were also tested using HEPES buffer—PEG and heparin. For heparin, stock solutions of 10 μM of each rhodamine labeled PLP (using either SEQ ID: 4 or SEQ ID: 7 as peptide monomers) and 30 μM of heparin sodium salt were prepared in buffer and kept refrigerated. Before experiments, solutions were given at least 30 min to come to room temperature and experiments were carried out at room temperature. In the microscope room, 20 μL of PLP was added to 5 μL of heparin and mixed gently in a microcentrifuge tube. 5 μL of solution was immediately pipetted onto Fisherbrand glass microscope slides and coverslip applied. All reactions were visualized on Olympus BX53 Fluorescent Microscope using the 581 nm laser to monitor the rhodamine, as well as brightfield. LLPS occurred within 60 min of initiation.
# [3] = system: Mouse striatal cells HdhQ7/7; assay: Cell permeability assay with rhodamine labeled PLPs (confocal imaging); format: cell-based; conditions: incubated with the cells for 24 hours
# Procedure: Mouse striatal cells HdhQ7/7 from Coriell Institute were plated in 4-chamber 35 mm round glass-bottom dishes at a density of 50,000 per well. Cells were incubated for 24 hours in a 5% CO2 atmosphere at 33° C. Rhodamine labeled PLPs, rhodamine dye, and vehicle control in 10% FBS DMEM medium without phenol red were incubated with the cells for 24 hours, respectively. The cell nuclei (stained with Hoechst) were accomplished using a 405 nm laser with a 15% laser power. The cell membrane (stained with Wheat Germ Agglutinin, Alexa Fluor 488 Conjugate) was accomplished using a 488 nm laser with a 12% laser power. Cell imaging for Rhodamine fluorescence was accomplished using a 581 nm laser with an 8% laser power.
# Circular dichroism = format: physicochemical; conditions: 37° C., Tris buffer pH 7.4
# Procedure: The proteomimetic similarities were further investigated using circular dichroism. Samples tested included K18 Tau, PLPs having SEQ ID: 4, SEQ ID: 2, and SEQ ID: 10, as well as said PLPs with K18 Tau. Each of these samples were dissolved in Tris buffer (10 mM Tris, 50 mM NaF, 0.5 mM dithiothreitol) and pH was adjusted to 7.4. Samples were tested with and without the addition of heparin. For samples containing heparin, samples were incubated in the presence of 10 μM heparin sodium salt for 24 hours. Polymers and peptides were run at 37° C., at a concentration of 3 mg/10 ml and K18 Tau was run at 10 uM. Parameters were: 1 mm quartz cuvette, continuous scan at 10 nm/min over 260 to 200 nm, 3 acquisitions averaged for one trace.
# [4] = STEM / dry state TEM of PLP homopolymers; format: physicochemical; conditions: prepared in H2O
# Procedure: Using standard STEM protocols, PLPs having SEQ ID: 2 or SEQ ID: 4 as peptide monomers were prepared in H2O and visualized. […] Further, from the results depicted in FIG. 17, the homopolymer the beta sheet forming nature was confirmed. After putting the PLPs in HEPES LLPS buffer and heating to 37° C. (i.e., body temperature), a time course established the fibrilization of the polymer on dry state TEM. The same fibrilization was seen on purified K18 Tau protein 24 hours after incubation with heparin in PBS as depicted in FIG. 19. The remarkably similar characteristics was a testament to the mimetic capabilities of the PLP.
# K18 Tau = molecular target: T1, K18 Tau (Homo sapiens, UniProt P10636); assay: Tau Kinetics Thioflavin T plate reader assay; format: biochemical; conditions: 1 μM PLP/Pep
# T1 construct: K18 Tau was first expressed, collected, and purified; His tag (cleaved yes); made in house
# T1 sequence (P10636 561-685 limits assumed): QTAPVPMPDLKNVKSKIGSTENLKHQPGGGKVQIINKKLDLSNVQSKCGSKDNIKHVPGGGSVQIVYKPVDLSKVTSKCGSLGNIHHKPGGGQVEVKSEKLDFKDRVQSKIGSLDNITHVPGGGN
# Procedure: as §1
# PLPs incorporating SEQ ID: 4 (“TP4”), SEQ ID: 2 (“TP7”), or SEQ ID: 10 (“TP12”) as peptide sidechains were tested. The PLPs, K18 Tau (10 μM) and Thio T (Sigma) at a final concentration of 10 μM was added, and aggregation was induced by the addition of a freshly prepared heparin sodium salt solution (Santa Cruz) at a final concentration of 44 μg/ml. For non-induced controls, assay buffer was added in place of heparin solution to a final volume of 100 μl per well. Aggregation reactions were carried out at 37° C. with continuous shaking and monitored via ThT fluorescence (excitation, 444 nm; emission, 485 nm; cutoff, 480 nm) in a Spectramax M5 microplate reader (Molecular Devices). Readings were taken every 5 min for a minimum of 24 h.
# Table C. Summary of results depicted in FIGS. 26, 28, and 29 in the event the graphical representations are difficult to ascertain. Values are rounded to the nearest whole number. Tau 10 hr refers to the average amplitude (fluorescent intensity readout) of an n=6 of the control Tau (meaning no peptide or polymer added, just heparin, thioflavin T, and PBS) trace at 10 hour. The same applies to Tau 15 hr and Tau 20 hr. Avg Tau amplitude refers to the average of the amplitudes at 10, 15, and 20 hr in the previous columns. As Tau is the control for each individual plate, and these readings were done on three separate plates, there are 3 different sets of average amplitudes. Similar to the aforementioned, PLP or Pep 10 hr refers to the average amplitude (n=6 for PLP and n=3 for peptide) of the Tau trace treated with that compound at 10 hours. Avg P amplitude refers to the average of the amplitude at the 3 times, or the average of the 3 previous columns. PLP or Pep/Tau % is the result of dividing the Avg P amplitude by Avg Tau amplitude and multiplying by 100. % amp change refers to the change in amplitude given by subtracting Tau average amplitude from P average amplitude and dividing by Tau average amplitude and multiplying by 100.
substance,measurement,setting,value
TP7: PLP generated from peptide monomers characterized by SEQ ID: 2 (DRVQIVYKRR),Thioflavin T signal of the polymer,[1],negligible signal
same,Liquid-liquid phase separation,[2],capable of liquid-liquid phase separation
same,Capability to permeate the striatal cells,[3],demonstrated the capability to permeate the striatal cells
same,CD conformation of PLPs,Circular dichroism; after addition of heparin,beta sheet formation
same,CD conformation of PLPs,Circular dichroism; before heparin was added,random coil formations
same,Conformation by STEM,[4],beta sheet conformations
same,PLP or Pep/Tau %,K18 Tau; Avg P amplitude divided by Avg Tau amplitude x 100,110%
same,"PLP or Pep 10 hr (average amplitude, fluorescent intensity readout, of the Tau trace treated with that compound)","K18 Tau; K18 Tau 10 μM, heparin, thioflavin T, PBS, 10 hr",633
same,PLP or Pep 15 hr (average amplitude),"K18 Tau; K18 Tau 10 μM, heparin, thioflavin T, PBS, 15 hr",715
same,PLP or Pep 20 hr (average amplitude),"K18 Tau; K18 Tau 10 μM, heparin, thioflavin T, PBS, 20 hr",672
same,Avg P Amplitude,"K18 Tau; average of the amplitudes at 10, 15 and 20 hr",673
same,% amp change,K18 Tau; change in amplitude relative to control Tau,11%
